Laboratory results reported in article PMC5316894, “Cationic amino acid transporters play key roles in the survival and transmission of apicomplexan parasites” (Nature Communications, 2017).

What was measured:
Test in all cases: cells, lysate or membranes
[1] = substrate: N=C(N)NCCC[C@H](N)C(=O)O; format: cell-based, Toxoplasma gondii; details: ND96, pH 7.4, 0-1 mM arginine, labelled compound, Figure 3 legend prints 88±16
[2] = substrate: N=C(N)NCCC[C@H](N)C(=O)O; format: cell-based, Plasmodium berghei; details: ND96, pH 7.4, 125 μM unlabelled methionine present to lower background, labelled compound
[3] = substrate: NCCCC[C@H](N)C(=O)O; format: cell-based, Plasmodium berghei; details: ND96, pH 7.4, 500 μM unlabelled methionine present to lower background, labelled compound

B1: TgNPT1 (TgNPT1-HA) (Toxoplasma gondii ME49) (protein)
chain: MAGLLSSCCGRVYALLPDSAHPSAQQKTPFGVNRYVLLVIYMIYALLTSSVYFGWRSMSAMLFKSGQFSWVCTGESADTSPEEGETDYLCALQDTKVQSLFTIAMACHFTCSAVAGYLLDTVGPKAVALLGQTFNALAWILLAFSGPNFRSVYPAFVFMGAGADVSVYPTLLIVNLFPGSTALIMATLGACISLSFFVPLVLRTMWESTGISFEAVCIGYAVAGPILCAVVAFFFIPFKAFKGVDNFSACVEAEKLANSPTAQSSPKAVDSPPCDEGASSRGRLAVSHNTERTAPDDEQEKDNTERISLSDLACDPRFKKQKVSFSSQAFTFLYFGICLYFTVCGWVMAYYQEAAGRFLCNDAEYTLEILTPLSTIPCLLFGVVINRIGIMPVILMLNTIGLLTYVCVVAAESVVAQYFSVIFFFMYISIFTTQMYVFVESTFDSAHFGKLIGVASLIGGLLSLISNVLYGDVTVGMLNGDTRPVVIALLAVIILMYPILLAMRTKRNRKKQMEQEDIRSRVLELKAAHAADAA
notes: full ORF from RH cDNA, C-terminal HA tag, cRNA in Xenopus laevis oocytes (pGHJ-HA); calculated 58 kDa, runs at ~40 kDa in parasites; 12 predicted TM domains
[1]
  Km: 88 ± 15 µM

B2: PbNPT1 (PbNPT1-HA) (Plasmodium berghei ANKA) (protein)
chain: MNESNCTKIVNFLKGMRLKTNPNLPGAKQKTPLNIHRFYLLLIIIIYTATSACIYFDWTSIRNLLLNVGKYEHLNISKYADITLSPQYKKINNLYPMTLAIHFTMSVFCGFLYDHIGPKFTAIIGQGFNILSWIFLSIDTTKIDTTLIGFIFLGLGADTAFIPILTVSNLFPDISTFIMTVIGAAASLSYAVPATLNFVYKKYPHFPFYYICYGYIFIILIPCLLVATFLLPMKPFKGLDYYLENDQESDSKNKEQISYTDNDVEMQPSLIQNGNTNVSNNVNKNKATKNIIEGENFHKQSILLFFKVLLSYPSICIIVYFILFNISTVFYGMVTDIYFSYNKSIINIINILMPISFIPCIIFGRFINKYGAAIIIIIMNAFSALMHLTALIKHQAAGLISAFLYMCAASIYTSQIYCFLLNAFPSVVFGKLLGITSLFGGMFSLFCEKLYDNISNSSGNKNDPTTISILLAISFIIMFLPLSILYTRNYEKNIESVNSEKNQIQA
notes: full ORF, synthetic codon-harmonized gene, C-terminal HA tag, cRNA in Xenopus laevis oocytes (pGHJ-HA)
[2]
  Km: 41 ± 9 µM
[3]
  Km: 130 ± 26 µM
